Results from the RNAGym collection of RNA variant scans (doi:10.1073/pnas.2313332121).
Variants at the floor of the assay were thinned out.

B1: TPR 5TU (parent)
chain: GGAUCUUCUCGAUCUAACAAAAAAGACAAAUCUGCCACAAAGCUUGAGAGCAUCUUCGGAUGCAGAGGCGGCAGCCUUCGGUGGCGCGAUAGCGCCAACGUUCUCAACUAUGACACGCAAAACGCGUGCUCCGUUGAAUGGAGUUUAUCAUG

Variants of: B1
Assay: polymerase ribozyme fitness, log enrichment relative to wild type (log ratio); higher = more active; in vitro selection for triplet polymerase activity
Method in brief: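 Mutant libraries of each subunit of a heterodimeric triplet polymerase ribozyme were built by PCR and transcribed. Each library went through one round of in vitro selection in triplicate: annealing with biotinylated primer, partner subunit and triplets, frozen incubation at −7 °C, gel excision of extended constructs, streptavidin-bead capture and RT-PCR. Input and output libraries were Illumina-sequenced; only genotypes with ≥10 input reads and ≥1 read per output were kept. Fitness is log2(genotype enrichment/wild-type enrichment), using inverse-variance-weighted replicate averages.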

Variant	polymerase ribozyme fitness (log ratio)
A64U U148G	≤ -4.2
C63U C75U U82A	0.455
G62A A98U	-1.42
G62U C96U	-1.14
C63U A119U U144C	-0.319
A64C G65A G84U C116G U139C	≤ -4.2
G62U G94U C96U	-3.88
A64C A115U A142U G143U	≤ -4.2
C63A G80A C85G C96G A110G	≤ -4.2
A64G A150U	-3.42
C63U U148C	-1.65
C63U G68A	≤ -4.2
U61G C96U U144G	-1.1
G62C A106U C125U	-3.86
C63G C95A A110G A122U	-3.22
A64U C96U C105G G141A A147G	≤ -4.2
C63A A64C C72U A89U U130G	≤ -4.2
C63A C87A A91G	≤ -4.2
C63U G65A A73U A115G U134G	≤ -4.2
U61G C99G A138G	≤ -4.2
C63G C93A A98G C116U G140C	≤ -4.2

Variant	polymerase ribozyme fitness (log ratio)
C63G U90A C99G U148A	≤ -4.2
C63A G92C	-1.03
C63A G117U A119C	0.257
G62C C63A C116G	-1.77
U61G C96U	-1.29
C63U C85U C87U	-0.425
G62U G86C C95G C132U	≤ -4.2
U61G G136C	-2.91
G62A A66G G86U A121G U127C	≤ -4.2
C63U A91U C93G U139G	≤ -4.2
C63U C76A C103G U146G U148G	≤ -4.2
C63A C76G C85U C96U A97G C116G	≤ -4.2
G62U C72G C93A	≤ -4.2
C63U C85U C95A	-0.621
G62A C87G U90A C96U C99U U148G	≤ -4.2
A64G G68C A142G G143A	≤ -4.2
U61G G74U G83A	≤ -4.2
G62U U102A	-1.64
G62A U130G	-3.67
A64G A91C	≤ -4.2
C63U C93A C116G A142G	-3.41

Variant	polymerase ribozyme fitness (log ratio)
C63G G83A A98C U104A	-0.841
A64U G92A G117C U145A	≤ -4.2
U61G G86A	-2.45
A64G A91G C123G	≤ -4.2
C63U C75U C76U G80A U82A C108G C114U U148C	≤ -4.2
A64G C99A G143A	≤ -4.2
G62C C85A	-3.75
U61G G83U G86A C149U	≤ -4.2
C63U U139G	0.261
G62A C93G U130C	-3.01
C63U C95U	-0.692
U61G G92A	≤ -4.2
G62A G141U	1.11
G62U A73U	-3.59
U61G U77G G92A C96A G143U	≤ -4.2
A64C C85A C118G A121C	≤ -4.2
C63A C85G C95U C118U	-2.65
A64G C93G	-4.05
C63G G81C U82A	-0.391
G62C A120G	-0.94
C63G G65C C93G A137C A142U	≤ -4.2

Variant	polymerase ribozyme fitness (log ratio)
A64C A73U G84A U102G C116A	≤ -4.2
C63G G65A G71A C87A C118U U145C	≤ -4.2
C63G G133U	-4.14
G62A C99U	-2.24
G62U A115C	-1.97
C63A A64C	-1.46
G65A C69G U78A U90G C96A G100A C108A U145A	≤ -4.2
G62C G83A	-2.25
A64G G68A	≤ -4.2
G62U C132A	≤ -4.2
A64G G80U C85U C93U G94U C103U	-4.18
G62C C93U U135A	-3.41
G62C A115C	-1.06
C63U G70A C85G A138C	≤ -4.2
C63G C69G	-1.75
G62A G117A U134C A150G	≤ -4.2
A64U C69U	≤ -4.2
G62C C63U C79A C85U A98U C99U C131A U135C U144A	≤ -4.2
C63A C87U G88A A115U	≤ -4.2
C63U U102A U104G G124A	-2.05
